Data on three molecules can be found in patent US20170119830A1 (REGENTS OF THE UNIVERSITY OF MINNESOTA, published 2017).

Where a chain is given by its changes, count along the chain named. Some results are limits rather than exact numbers.

One assay addresses mesothelin (MSLN) (UniProt Q13421). The experiment in a line: 4 C cell binding assay on Panc-1 (MSLN strongly-positive) cells, E4 qPCR.
For assay [1], the target named is T1, AdML-5WT, control adenovirus with the native (wild type) Ad5 fiber (adenovirus type 5, UniProt P11818 1-581).
T1 construct: The whole virion stood in the assays; also called AdML-WT; wild type fiber virus
T1 sequence: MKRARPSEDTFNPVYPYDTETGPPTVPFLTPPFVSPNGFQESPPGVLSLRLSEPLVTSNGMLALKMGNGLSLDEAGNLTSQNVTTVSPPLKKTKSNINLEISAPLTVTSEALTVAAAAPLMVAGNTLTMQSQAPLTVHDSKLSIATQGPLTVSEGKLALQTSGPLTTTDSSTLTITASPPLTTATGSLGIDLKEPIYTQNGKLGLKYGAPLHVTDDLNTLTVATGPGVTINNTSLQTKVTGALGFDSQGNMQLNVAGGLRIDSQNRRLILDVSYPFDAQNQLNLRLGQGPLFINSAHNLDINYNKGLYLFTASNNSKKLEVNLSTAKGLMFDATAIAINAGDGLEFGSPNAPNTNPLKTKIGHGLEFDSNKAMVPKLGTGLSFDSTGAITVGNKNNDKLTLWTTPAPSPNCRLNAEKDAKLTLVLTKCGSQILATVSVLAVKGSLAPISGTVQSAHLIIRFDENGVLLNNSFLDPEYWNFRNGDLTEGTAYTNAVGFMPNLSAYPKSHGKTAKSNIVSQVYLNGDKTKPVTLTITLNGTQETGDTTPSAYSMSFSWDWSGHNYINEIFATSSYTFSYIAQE
The experiment in a line: cell binding assay, 10 vp/cell, 2 h, 4 C, E4 qPCR (FIG. 26). (Quantitative PCR measures a nucleic acid by following its amplification.)

Assay [2] deals with T2, CD133 (Prominin-1) (UniProt O43490 20-865).
T2 construct: whole, on cells; the cell lines are human
T2 sequence: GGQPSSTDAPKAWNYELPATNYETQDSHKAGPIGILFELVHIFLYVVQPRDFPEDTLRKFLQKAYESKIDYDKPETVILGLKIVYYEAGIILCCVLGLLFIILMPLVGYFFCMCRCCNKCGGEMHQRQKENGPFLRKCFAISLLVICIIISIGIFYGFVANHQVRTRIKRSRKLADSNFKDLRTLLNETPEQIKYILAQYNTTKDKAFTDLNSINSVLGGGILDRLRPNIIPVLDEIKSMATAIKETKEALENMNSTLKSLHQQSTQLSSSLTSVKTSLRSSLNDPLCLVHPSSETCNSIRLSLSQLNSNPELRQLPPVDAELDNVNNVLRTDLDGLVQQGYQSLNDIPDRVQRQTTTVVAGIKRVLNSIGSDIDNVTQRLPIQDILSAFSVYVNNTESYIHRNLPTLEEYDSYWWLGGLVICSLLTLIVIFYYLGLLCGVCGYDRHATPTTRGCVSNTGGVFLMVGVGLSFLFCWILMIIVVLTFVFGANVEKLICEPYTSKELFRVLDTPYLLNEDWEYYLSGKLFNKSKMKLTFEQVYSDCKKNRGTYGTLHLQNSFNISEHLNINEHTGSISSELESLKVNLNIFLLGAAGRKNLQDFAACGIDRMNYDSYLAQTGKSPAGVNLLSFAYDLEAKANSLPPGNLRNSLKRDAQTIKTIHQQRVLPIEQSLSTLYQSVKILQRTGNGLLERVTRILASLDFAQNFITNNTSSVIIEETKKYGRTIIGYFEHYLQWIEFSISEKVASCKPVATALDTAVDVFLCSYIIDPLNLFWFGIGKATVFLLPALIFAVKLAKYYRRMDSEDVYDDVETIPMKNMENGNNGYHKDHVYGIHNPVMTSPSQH
The experiment in a line: cell binding assay with and without anti-CD133 antibody (FIG. 17).

Assay [3] has as its target T2, CD133 (Prominin-1). The assay is described as follows: cell-based or functional assay.

In the assay with mesothelin (MSLN), “AdML-VTIN, adenovirus with the VTINRSA (SEQ ID NO:12) targeting motif in the AB-loop of the fiber knob (from UniProt P11818 1-410; P11818 418-581)” showed a fold binding against AdMG553 of 2 fold and a fold binding against AdML-5WT of 5 fold.

B1: Coxsackie adenovirus receptor (CAR) (receptor)
chain: LSITTPEEMIEKAKGETAYLPCKFTLSPEDQGPLDIEWLISPADNQKVDQVIILYSGDKIYDDYYPDLKGRVHFTSNDLKSGDASINVTNLQLSDIGTYQCKVKKAPGVANKKIHLVVLVKPSGARCYVDGSEEIGSDFKIKCEPKEGSLPLQYEWQKLSDSQKMPTSWLAEMTSSVISVKNASSEYSGTYSCTVRNRVGSDQCLLRLNVVPPSNKAGLIAGAIIGTLLALALIGLIIFCCRKKRREEKYEKEVHHDIREDVPPPKSRTSTARSYIGSNHSSLGSMSPSNMEGYSKTQYNQVPSEDFERTPQSPTLPPAKVAAPNLSRMGAIPVMIPAQSKDGSIV
notes: whole, on cells; the cell lines are human; also called Ad5 receptor; natural Ad receptor
On to B1, for which the binding result in assay [1] is “binds”.

B2: AdML-TYML, adenovirus with the TYMLSRN (SEQ ID NO:106) targeting motif in the AB-loop of the fiber knob (other)
chain: T1 sequence with C411T, R412Y, L413M, N414L, A415S, E416R, K417N
notes: also called TYML virus; Ad-TYML
For the molecule B2, in the assay with CD133 (Prominin-1) [2], the “fold binding, CD133(+) against CD133(-) 293 cells” value was 4 fold. Further, in the assay with CD133 (Prominin-1) [3], the “viral copy number after infection (E4 qPCR)” value is above 5 fold.
